Data taken from publication PMC9882600, “Asymmetric gating of a human hetero-pentameric glycine receptor” (Research Square, 2023).

Columns and labels:
[1] = biological target: human glycine receptor β subunit, cryo-EM construct βem (human) (UniProt P48167); assay: cryo-EM structure; α1emβem GlyR co-expressed and purified as a complex, 6 mg/ml in 20 mM Tris pH 8.0, 200 mM NaCl, 0.06% digitonin; vitrified without ligand (apo) or after 1 h with 2 mM glycine on ice (open, expanded-open, desensitized classes); ~3 mM fluorinated fos-choline 8 added before freezing
[2] = biological target: the molecule itself; assay: as above

Chain of human glycine receptor β subunit, cryo-EM construct βem (human) (P48167 23-497): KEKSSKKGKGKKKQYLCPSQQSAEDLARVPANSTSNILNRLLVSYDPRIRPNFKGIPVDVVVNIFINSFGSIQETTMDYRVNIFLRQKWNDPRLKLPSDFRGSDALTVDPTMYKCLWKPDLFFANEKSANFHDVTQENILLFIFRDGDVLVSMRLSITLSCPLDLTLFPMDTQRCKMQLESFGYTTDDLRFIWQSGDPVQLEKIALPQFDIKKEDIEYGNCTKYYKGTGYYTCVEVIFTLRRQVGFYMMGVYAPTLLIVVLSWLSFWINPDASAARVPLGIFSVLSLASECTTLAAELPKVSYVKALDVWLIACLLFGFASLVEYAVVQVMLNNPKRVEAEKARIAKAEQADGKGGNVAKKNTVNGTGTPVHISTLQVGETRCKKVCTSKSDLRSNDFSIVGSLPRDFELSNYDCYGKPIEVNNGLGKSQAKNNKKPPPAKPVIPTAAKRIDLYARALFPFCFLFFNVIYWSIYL

B1: human glycine receptor α1 subunit, cryo-EM construct α1em (receptor)
chain: ARSAPKPMSPSDFLDKLMGRTSGYDARIRPNFKGPPVNVSCNIFINSFGSIAETTMDYRVNIFLRQQWNDPRLAYNEYPDDSLDLDPSMLDSIWKPDLFFANEKGAHFHEITTDNKLLRISRNGNVLYSIRITLTLACPMDLKNFPMDVQTCIMQLESFGYTMNDLIFEWQEQGAVQVADGLTLPQFILKEEKDLRYCTKHYNTGKFTCIEARFHLERQMGYYLIQMYIPSLLIVILSWISFWINMDAAPARVGLGITTVLTMTTQSSGSRASLPKVSYVKAIDIWMAVCLLFVFSALLEYAAVNFVSRQHKELLGSSGEEMRKLFIQRAKKIDKISRIGFPMAFLIFNMFYWIIYKIVRREDVHNQ
notes: glycine receptor α1 subunit, human, NCBI NP_001139512.1; residues before the M3/M4 loop stretch R316-P381 that was replaced by GSSG; the lists of unbuilt residues begin at A1 and give 367 aa in total; linker that replaces the M3/M4 loop residues R316-P381; residues after the replaced M3/M4 loop stretch, to Q429 (last residue named in the lists of unbuilt residues); Four copies stand in the …
[1]
  stoichiometry N: 4 α1:β
[2]
  binding result: binds
